T1: Ser202-phosphorylated PhPINK1 (amino acids 115–575), monomeric (Pediculus humanus corporis, UniProt E0W1I1 115-575, phosphoserine at 202)
T1 construct: PINK1 of Pediculus humanus corporis, amino acids 115–575, wild type, autophosphorylated at Ser202 after dephosphorylation; For the analytical SEC the monomer fractions of the SEC run were pooled; also called phospho-PhPINK1; monomeric phosphorylated PhPINK1; not shown: GST, N-terminal, cleaved
T1 sequence (looked up): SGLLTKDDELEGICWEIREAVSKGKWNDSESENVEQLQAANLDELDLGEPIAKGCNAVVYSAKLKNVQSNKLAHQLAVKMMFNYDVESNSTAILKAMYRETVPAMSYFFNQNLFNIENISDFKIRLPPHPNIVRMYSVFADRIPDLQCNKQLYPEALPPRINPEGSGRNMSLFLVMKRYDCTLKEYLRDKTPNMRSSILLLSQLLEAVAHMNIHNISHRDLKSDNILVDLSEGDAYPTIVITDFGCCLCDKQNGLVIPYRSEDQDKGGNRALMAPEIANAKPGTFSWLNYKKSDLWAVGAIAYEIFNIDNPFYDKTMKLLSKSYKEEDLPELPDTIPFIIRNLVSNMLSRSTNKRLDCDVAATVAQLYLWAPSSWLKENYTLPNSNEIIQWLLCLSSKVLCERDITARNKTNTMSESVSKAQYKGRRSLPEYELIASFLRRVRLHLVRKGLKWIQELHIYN

B1: PhPINK1(D334A) (amino acids 115–575), unphosphorylated (enzyme)
chain: SGLLTKDDELEGICWEIREAVSKGKWNDSESENVEQLQAANLDELDLGEPIAKGCNAVVYSAKLKNVQSNKLAHQLAVKMMFNYDVESNSTAILKAMYRETVPAMSYFFNQNLFNIENISDFKIRLPPHPNIVRMYSVFADRIPDLQCNKQLYPEALPPRINPEGSGRNMSLFLVMKRYDCTLKEYLRDKTPNMRSSILLLSQLLEAVAHMNIHNISHRALKSDNILVDLSEGDAYPTIVITDFGCCLCDKQNGLVIPYRSEDQDKGGNRALMAPEIANAKPGTFSWLNYKKSDLWAVGAIAYEIFNIDNPFYDKTMKLLSKSYKEEDLPELPDTIPFIIRNLVSNMLSRSTNKRLDCDVAATVAQLYLWAPSSWLKENYTLPNSNEIIQWLLCLSSKVLCERDITARNKTNTMSESVSKAQYKGRRSLPEYELIASFLRRVRLHLVRKGLKWIQELHIYN
notes: pOPINK vector, GST tag removed with 3C PreScission protease; also called unphosphorylated PhPINK1(D334A); monomeric PhPINK1(D334A); source: E. coli Rosetta2 (DE3) pLacI, purified (Glutathione Sepharose, 3C cleavage, SEC); not shown: GST, N-terminal, cleaved
B2: PhPINK1(D357A) (amino acids 115–575) (enzyme)
chain: SGLLTKDDELEGICWEIREAVSKGKWNDSESENVEQLQAANLDELDLGEPIAKGCNAVVYSAKLKNVQSNKLAHQLAVKMMFNYDVESNSTAILKAMYRETVPAMSYFFNQNLFNIENISDFKIRLPPHPNIVRMYSVFADRIPDLQCNKQLYPEALPPRINPEGSGRNMSLFLVMKRYDCTLKEYLRDKTPNMRSSILLLSQLLEAVAHMNIHNISHRDLKSDNILVDLSEGDAYPTIVITAFGCCLCDKQNGLVIPYRSEDQDKGGNRALMAPEIANAKPGTFSWLNYKKSDLWAVGAIAYEIFNIDNPFYDKTMKLLSKSYKEEDLPELPDTIPFIIRNLVSNMLSRSTNKRLDCDVAATVAQLYLWAPSSWLKENYTLPNSNEIIQWLLCLSSKVLCERDITARNKTNTMSESVSKAQYKGRRSLPEYELIASFLRRVRLHLVRKGLKWIQELHIYN
notes: Forms a dodecamer (two rings of three dimers); also called oligomeric PhPINK1(D357A); PhPINK1(D357A) dodecamer; source: E. coli Rosetta2 (DE3) pLacI, purified (Glutathione Sepharose, 3C cleavage, Mono Q for EM, SEC); not shown: GST, N-terminal, cleaved
B3: TcPINK1(T172C/D359A) (enzyme, Tribolium castaneum, UniProt D6WMX4 117-570, looked up)
chain: TGILTKEEELEGVCWEIREAISKIKWQYYDIDESRFESNPITLNDLSLGKPIAKGCNGVVYSAKVKDDETDDNKYPFALKMMFNYDIQSNSMEILKAMYRETVPARMYYSNHDLNNWEIELANRRKHLPPHPNIVAIFSVFTDLIQELEGSKDLYPAALPPRLHPEGEGRNMSLFLLMKRYDCNLQSFLSTAPSTRTSLLLLAQLLEGVAHMTAHGIAHRDLKSDNLLLDTSEPESPILVISAFGCCLADKTNGLSLPYTSYEMDKGGNTALMAPEIICQKPGTFSVLNYSKADLWAVGAIAYEIFNCHNPFYGPSRLKNFNYKEGDLPKLPDEVPTVIQALVANLLKRNPNKRLDPEVAANVCQLFLWAPSTWLKPGLKVPTSGEILQWLLSLTTKVLCEGKINNKSFGEKFTRNWRRTYPEYLLISSFLCRAKLANVRNALHWIQENLPELD
notes: PINK1 of Tribolium castaneum with T172C and D359A; also called TcPINK1 with an equivalent T172C mutation; source: E. coli Rosetta2 (DE3) pLacI, purified (Glutathione Sepharose, 3C cleavage, SEC); not shown: GST, N-terminal, cleaved
B4: PhPINK1 (amino acids 143–575) (domain or fragment, Pediculus humanus corporis, UniProt E0W1I1 143-575, looked up)
chain: SESENVEQLQAANLDELDLGEPIAKGCNAVVYSAKLKNVQSNKLAHQLAVKMMFNYDVESNSTAILKAMYRETVPAMSYFFNQNLFNIENISDFKIRLPPHPNIVRMYSVFADRIPDLQCNKQLYPEALPPRINPEGSGRNMSLFLVMKRYDCTLKEYLRDKTPNMRSSILLLSQLLEAVAHMNIHNISHRDLKSDNILVDLSEGDAYPTIVITDFGCCLCDKQNGLVIPYRSEDQDKGGNRALMAPEIANAKPGTFSWLNYKKSDLWAVGAIAYEIFNIDNPFYDKTMKLLSKSYKEEDLPELPDTIPFIIRNLVSNMLSRSTNKRLDCDVAATVAQLYLWAPSSWLKENYTLPNSNEIIQWLLCLSSKVLCERDITARNKTNTMSESVSKAQYKGRRSLPEYELIASFLRRVRLHLVRKGLKWIQELHIYN
notes: PINK1 of Pediculus humanus corporis, amino acids 143–575, lacking the N-helix; also called PhPINK1 without the N-helix; the shorter PhPINK1 construct

Tests used:
[1] = biological target: T1, Ser202-phosphorylated PhPINK1 (amino …); test: SEC + other: Phos-tag SDS–PAGE; Phos-tag analysis of the oligomer species from the analytical SEC of the mixed proteins; conditions: both partners purified
[2] = biological target: the molecule itself; test: SEC-MALS; Superdex 200 Increase 10/300 GL; 25 mM Tris (pH 8.5), 150 mM NaCl, 5% (v/v) glycerol, 2 mM TCEP; 100 µl of purified protein at 1 mg ml^−1, 0.5 ml min^−1
[3] = biological target: the molecule itself; test: cross-linking; in vitro disulphide linkage: 1.5 μM PhPINK1 or TcPINK1 with 2 mM H2O2 in 25 mM Tris (pH 7.4), 150 mM NaCl, 22 °C, time course; non-reducing gel, Coomassie

Row | Binder | stoichiometry N [2] | further results
1 | B1 |  | stoichiometry N [1]: 1
2 | B2 | 2 | 
3 | B3 |  | binding result [3]: binds
4 | B4 | 2 | 

Reference: article PMC8828467, “Activation mechanism of PINK1” (Nature, 2021)
